Data from patent US20240116985A1 (published 2024).
Starred links: 1 amine or outer side, 2 acyl side, 3 side chain; linkers in the order of their positions; H or OH if unused. Positions of bridges follow the written chain, without caps; N, C: chain ends. Non-standard residues stand in square brackets, D forms with d. Primed or numbered codes have the meaning given here. B5(16) = 2-amino-2-(pent-4-en-1-yl)hept-6-enoic acid = 2,2-bis(4-pentenyl)glycine (stitching residue), C=CCCCC(CCCC=C)(N[*:1])C(=O)[*:2]; B5(4) = 2,2-bis(4-pentenyl)glycine = 2-amino-2-(pent-4-en-1-yl)hept-6-enoic acid (stitching residue), C=CCCCC(CCCC=C)(N[*:1])C(=O)[*:2]; PyrS(3) = (S)-1-((allyloxy)carbonyl)-3-aminopyrrolidine-3-carboxylic acid, stapling residue, C=CCOC(=O)N1CC[C@@](N[*:1])(C(=O)[*:2])C1; PyrS″ = (S)-1-((allyloxy)carbonyl)-3-aminopyrrolidine-3-carboxylic acid (stapling residue), C=CCOC(=O)N1CC[C@@](N[*:1])(C(=O)[*:2])C1; B5(21) = 2-amino-2-(pent-4-en-1-yl)hept-6-enoic acid, bis(4-pentenyl)glycine (stitching residue), C=CCCCC(CCCC=C)(N[*:1])C(=O)[*:2]; RdN = (R)-4-(((allyloxy)carbonyl)(methyl)amino)-2-amino-2-methylbutanoic acid, C=CCOC(=O)N(C)CC[C@@](C)(N[*:1])C(=O)[*:2]; PyrS = (S)-1-((allyloxy)carbonyl)-3-aminopyrrolidine-3-carboxylic acid, C=CCOC(=O)N1CC[C@@](N[*:1])(C(=O)[*:2])C1; Trp(5-cPr) = 5-cyclopropyl-L-tryptophan (5CpW), O=C([C@H](Cc1c[nH]c2ccc(C3CC3)cc12)N[*:1])[*:2]; B5 = 2-amino-2-(pent-4-en-1-yl)hept-6-enoic acid, C=CCCCC(CCCC=C)(N[*:1])C(=O)[*:2]; Trp(5-CF3) = N[C@@H](Cc1c[nH]c2ccc(C(F)(F)F)cc12)C(=O)O; H2Trp = 2,3-dihydrotryptophan (indolin-3-yl alanine); Trp(5-F) = N[C@@H](Cc1c[nH]c2ccc(F)cc12)C(=O)O; S7 = C[C@@](CCCCCC=[*:3])(N[*:1])C(=O)[*:2]; Bip = N[C@@H](Cc1ccc(-c2ccccc2)cc1)C(=O)O; αAllylPro = C=CC[C@@]1(C(=O)O)CCCN1; R8 = C=CCCCCCC[C@@](C)(N)C(=O)O; S8 = C=CCCCCCC[C@](C)(N)C(=O)O; Nle = CCCC[C@H](N)C(=O)O; Aib = CC(C)(N)C(=O)O

T1: full-length beta-Catenin (Uniprot ID P35222) (Homo sapiens (Human), UniProt P35222 2-781)
T1 construct: the AlphaScreen assay uses a Histidine (Nickel Chelate) detection kit, so a His tag is likely there; also called B-Catenin; bCat
T1 sequence: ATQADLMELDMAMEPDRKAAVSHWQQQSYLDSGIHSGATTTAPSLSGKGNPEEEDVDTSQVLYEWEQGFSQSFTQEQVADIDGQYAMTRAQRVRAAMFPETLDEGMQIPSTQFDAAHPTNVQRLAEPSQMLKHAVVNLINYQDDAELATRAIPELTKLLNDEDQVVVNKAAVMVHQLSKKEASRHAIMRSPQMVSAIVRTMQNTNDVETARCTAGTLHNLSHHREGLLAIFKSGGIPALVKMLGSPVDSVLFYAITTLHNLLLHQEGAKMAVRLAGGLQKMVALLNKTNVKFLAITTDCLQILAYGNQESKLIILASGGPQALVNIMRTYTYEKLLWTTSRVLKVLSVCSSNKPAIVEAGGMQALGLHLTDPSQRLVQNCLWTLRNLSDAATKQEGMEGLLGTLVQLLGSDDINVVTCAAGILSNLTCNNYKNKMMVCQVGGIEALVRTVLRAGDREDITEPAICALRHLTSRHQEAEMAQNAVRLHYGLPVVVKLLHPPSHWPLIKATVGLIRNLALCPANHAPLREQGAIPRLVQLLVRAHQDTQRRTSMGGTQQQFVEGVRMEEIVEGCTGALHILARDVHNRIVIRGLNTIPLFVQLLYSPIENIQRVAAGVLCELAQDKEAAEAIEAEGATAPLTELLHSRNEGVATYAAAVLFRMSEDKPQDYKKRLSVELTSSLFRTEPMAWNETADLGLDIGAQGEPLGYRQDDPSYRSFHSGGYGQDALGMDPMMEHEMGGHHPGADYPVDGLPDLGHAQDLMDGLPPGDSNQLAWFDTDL

B1: I-161 (peptide)
peptide: Ac-FDA[R8]DDAAFV[PyrS]EWQ-NH2
modifications: staple 4-11; not fully specified; printed as Ac-Phe-Asp-Ala-R8-Asp-Asp-Ala-Ala-Phe-Val-PyrS-Glu-Trp-Gln-NH2
notes: stapled peptide
B2: I-150 (peptide)
peptide: DIXDDAAFQXFWH
modifications: not fully specified; as printed: Ac-Asp-Ile-RdN-Asp-Asp-Ala-Ala-Phe-Gln-S7-Phe-Trp-His-NH2; N-terminal acetyl, C-terminal amide; RdN(3), S7(10); staple RdN-S7 by olefin metathesis
notes: stapled peptide
B3: I-139 (peptide)
peptide: Ac-[αAllylPro]DA[B5(21)]D[Nle]AAFV[S8]FWQ-NH2
modifications: staple 1-4, 4-11; not fully specified; printed as Ac-PL3-Asp-Ala-B5-Asp-nLeu-Ala-Ala-Phe-Val-S8-Phe-Trp-Gln-NH2
notes: stapled peptide
B4: I-159 (peptide)
peptide: Ac-[Aib]DA[R8]DEAAFV[PyrS″]FW[Aib]-NH2
modifications: staple 4-11; not fully specified; printed as Ac-Aib-Asp-Ala-R8-Asp-Glu-Ala-Ala-Phe-Val-PyrS-Phe-Trp-Aib-NH2
notes: stapled peptide
B5: I-160 (peptide)
peptide: Ac-[Aib]DA[R8]DEAAFV[PyrS]FW[Aib]-NH2
modifications: staple 4-11; not fully specified; printed as Ac-Aib-Asp-Ala-R8-Asp-Glu-Ala-Ala-Phe-Val-PyrS-Phe-Trp-Aib-NH2
notes: stapled peptide
B6: I-171 (peptide)
peptide: XDAXDEAAFVXFXQ
modifications: not fully specified; as printed: Ac-PL3-Asp-Ala-B5-Asp-Glu-Ala-Ala-Phe-Val-S8-Phe-5CpW-Gln-NH2; N-terminal acetyl, C-terminal amide; PL3(1), B5(4), S8(11), 5CpW(13); staples PL3-B5 and B5-S8 by olefin metathesis
notes: stapled peptide
B7: I-138 (peptide)
peptide: Ac-[αAllylPro]DA[B5(4)]D[Nle]AAFV[S8]FWQ-NH2
modifications: staple 1-4, 4-11; not fully specified; printed as Ac-PL3-Asp-Ala-B5-Asp-nLeu-Ala-Ala-Phe-Val-S8-Phe-Trp-Gln-NH2
notes: stapled peptide
B8: I-162 (peptide)
peptide: Ac-FDA[R8]DDAAFV[PyrS″]EWQ-NH2
modifications: staple 4-11; not fully specified; printed as Ac-Phe-Asp-Ala-R8-Asp-Asp-Ala-Ala-Phe-Val-PyrS-Glu-Trp-Gln-NH2
notes: stapled peptide
B9: I-163 (peptide)
peptide: Ac-FDA[R8]DDAAFS[PyrS″]FWQ-NH2
modifications: staple 4-11; not fully specified; printed as Ac-Phe-Asp-Ala-R8-Asp-Asp-Ala-Ala-Phe-Ser-PyrS-Phe-Trp-Gln-NH2
notes: stapled peptide

These binders were tested against T1, full-length beta-Catenin (Uniprot ID …) (assay: AlphaScreen competition; full-length beta-catenin with biotin-TCF4(10-53) probe as competitor).
Method: Equal volume of the titrated peptide was added to the plate and incubated for 15 minutes at 20° C. Then 4 uL of donor and 4 uL acceptor beads at 10 ug/mL were added to the plate, for a 16 uL reaction pool and protected from light for 60 minutes at 20° C. prior to read. Reads were performed on a CLARIOstar plate reader (BMG Labtech) in duplicate, and data were fitted to a 1:1 binding model with hill slope using an in-house script. All provided concentrations are final concentrations.
In the case of Ac-[αAllylPro]DA[B5]DEAAFV[S8]F[Bip]Q-NH2 (staple 1-4, 4-11, stapled peptide composition) [I-145], the EC50 is reported as ≥ 10 µM.
For B1, the EC50 was ≥ 10 µM.
Ac-[αAllylPro]DA[B5]DEAAFV[S8]F[Trp(5-cPr)]Q-NH2 (staple 1-4, 4-11, stapled peptide) [I-170] gave an EC50 of 4.67 µM.
For B2, the EC50 was 1.94 µM.
B3 was tested, and the EC50 was ≥ 10 µM.
For Ac-[αAllylPro]DA[B5(16)]DEAAFV[S8]F[H2Trp]Q-NH2 (staple 1-4, 4-11, stapled peptide) [I-168], the EC50 was 5.64 µM.
Ac-FDA[R8]DDAAFS[PyrS]FWQ-NH2 (staple 4-11, stapled peptide) [I-164] was tested, and the EC50 was 3.61 µM.
B4 showed an EC50 of 5.35 µM.
B5 was tested, and the EC50 was 3.24 µM.
Work on Ac-[αAllylPro]DA[B5(4)]DEAAFV[S8]F[Trp(5-F)]Q-NH2 (staple 1-4, 4-11, stapled peptide composition) [I-146] yielded an EC50 of 1.22 µM.
Work on Ac-[Aib]DA[R8]DEAAFV[PyrS(3)]FWQ-NH2 (staple 4-11; also: later-eluting staple isomer, stapled peptide) [I-158] yielded an EC50 of 2.17 µM.
Binder Ac-DI[RdN]DDAAFQ[S7]FW-NH2 (staple 3-10, stapled peptide composition) [I-151] has an EC50 of 5.5 µM.
Work on B6 yielded an EC50 of 2.07 µM.
With B7 the EC50 was ≥ 10 µM.
Work on Ac-[αAllylPro]DA[B5]DEAAFV[S8]F[Trp(5-CF3)]Q-NH2 (staple 1-4, 4-11, stapled peptide composition) [I-169] yielded an EC50 of 9.21 µM.
With B8 the EC50 was ≥ 10 µM.
Work on B9 yielded an EC50 of 9.75 µM.
